Experimental data: patent publication US20180016354A1 (Merck KGaA, published 2018)

Molecular target: T1, EGFR (on EGFR-expressing A431 cells) (UniProt P00533 25-1210, limits assumed)
T1 construct: whole, on cells; A431 is a human cell line; also called EGFR-positive cells; EGFR-overexpressing A431 cells
Assay: flow cytometry on A431 cells

binding result | Binder
binds | Domain-exchanged one-armed anti-EGFR antibody (CH3-KiH domain-exchanged hu425 Fab on SEED AG heavy chain, with huFc_GA SEED) (antibody, One Fab arm only (monovalent); also called One-armed CH3 domain-exchanged anti-EGFR antibody; one-armed domain-exchanged anti-EGFR antibody) heavy: QVQLVQSGAEVKKPGASVKVSCKASGYTFTSHWMHWVRQAPGQGLEWIGEFNPSNGRTNYNEKFKSKATMTVDTSTNTAYMELSSLRSEDTAVYYCASRDYDYDGRYFDYWGQGTLVTVSSASTKGEPQVYTLPPSRDELTKNQVSLYCLVKGFYPSDIAVEWESNGQPENNYKTTPPVLDSDGSFFLYSKLTVDKSRWQQGNVFSCSVMHEALHNHYTQKSLSLSKSCDKTHTCPPCPAPELLGGPSVFLFPPKPKDTLMISRTPEVTCVVVDVSHEDPEVKFNWYVDGVEVHNAKTKPREEQYNSTYRVVSVLTVLHQDWLNGKEYKCKVSNKALPAPIEKTISKAKGQPFRPEVHLLPPSREEMTKNQVSLTCLARGFYPKDIAVEWESNGQPENNYKTTPSRQEPSQGTTTFAVTSKLTVDKSRWQQGNVFSCSVMHEALHNHYTQKTISLSPGK EPKSSDKTHTCPPCPAPELLGGPSVFLFPPKPKDTLMISRTPEVTCVVVDVSHEDPEVKFNWYVDGVEVHNAKTKPREEQYNSTYRVVSVLTVLHQDWLNGKEYKCKVSNKALPAPIEKTISKAKGQPREPQVYTLPPPSEELALNELVTLTCLVKGFYPSDIAVEWLQGSQELPREKYLTWAPVLDSDGSFFLYSILRVAAEDWKKGDTFSCSVMHEALHNHYTQKSLDRSPGK light: DIQMTQSPSSLSASVGDRVTITCSASSSVTYMYWYQQKPGKAPKLLIYDTSNLASGVPSRFSGSGSGTDYTFTISSLQPEDIATYYCQQWSSHIFTFGQGTKVEIKRTVAEPQVYTLPPSRDELTKNQVSLTCLVKGFYPSDIAVEWESNGQPENNYKTTPPVLDSDGSFFLTSKLTVDKSRWQQGNVFSCSVMHEALHNHYTQKSLSLSGEC
binds | one-armed anti-EGFR SEED antibody with Azymetric CH3 domain-exchanged Fab, Variant 2 (antibody, hu425 Fv; one Fab arm only; also called hu425 CH3-Azymmetric variant 2) heavy: QVQLVQSGAEVKKPGASVKVSCKASGYTFTSHWMHWVRQAPGQGLEWIGEFNPSNGRTNYNEKFKSKATMTVDTSTNTAYMELSSLRSEDTAVYYCASRDYDYDGRYFDYWGQGTLVTVSSASTKGEPQVYVLPPSREEMTKNQVSLLCLVKGFYPSDIAVEWESNGQPENNYLTWPPVLDSDGSFFLYSKLTVDKSRWQQGNVFSCSVMHEALHNHYTQKSLSLSKSCDKTHTCPPCPAPELLGGPSVFLFPPKPKDTLMISRTPEVTCVVVDVSHEDPEVKFNWYVDGVEVHNAKTKPREEQYNSTYRVVSVLTVLHQDWLNGKEYKCKVSNKALPAPIEKTISKAKGQPFRPEVHLLPPSREEMTKNQVSLTCLARGFYPKDIAVEWESNGQPENNYKTTPSRQEPSQGTTTFAVTSKLTVDKSRWQQGNVFSCSVMHEALHNHYTQKTISLSPGK light: DIQMTQSPSSLSASVGDRVTITCSASSSVTYMYWYQQKPGKAPKLLIYDTSNLASGVPSRFSGSGSGTDYTFTISSLQPEDIATYYCQQWSSHIFTFGQGTKVEIKRTVAEPQVYVYPPSREEMTKNQVSLTCLVKGFYPSDIAVEWESNGQPENNYKTTPPVLDSDGSFALVSKLTVDKSRWQQGNVFSCSVMHEALHNHYTQKSLSLSGEC EPKSSDKTHTCPPCPAPELLGGPSVFLFPPKPKDTLMISRTPEVTCVVVDVSHEDPEVKFNWYVDGVEVHNAKTKPREEQYNSTYRVVSVLTVLHQDWLNGKEYKCKVSNKALPAPIEKTISKAKGQPREPQVYTLPPPSEELALNELVTLTCLVKGFYPSDIAVEWLQGSQELPREKYLTWAPVLDSDGSFFLYSILRVAAEDWKKGDTFSCSVMHEALHNHYTQKSLDRSPGK
binds | one-armed anti-EGFR SEED antibody with Charge pair CH3 domain-exchanged Fab, Variant 2 (antibody, hu425 Fv; one Fab arm only; also called Charge pair variant 2) heavy: QVQLVQSGAEVKKPGASVKVSCKASGYTFTSHWMHWVRQAPGQGLEWIGEFNPSNGRTNYNEKFKSKATMTVDTSTNTAYMELSSLRSEDTAVYYCASRDYDYDGRYFDYWGQGTLVTVSSASTKGEPQVYTLPPSREEMTKNQVSLTCLVKGFYPSDIAVEWESNGQPENNYDTTPPVLDSDGSFFLYSDLTVDKSRWQQGNVFSCSVMHEALHNHYTQKSLSLSKSCDKTHTCPPCPAPELLGGPSVFLFPPKPKDTLMISRTPEVTCVVVDVSHEDPEVKFNWYVDGVEVHNAKTKPREEQYNSTYRVVSVLTVLHQDWLNGKEYKCKVSNKALPAPIEKTISKAKGQPFRPEVHLLPPSREEMTKNQVSLTCLARGFYPKDIAVEWESNGQPENNYKTTPSRQEPSQGTTTFAVTSKLTVDKSRWQQGNVFSCSVMHEALHNHYTQKTISLSPGK light: DIQMTQSPSSLSASVGDRVTITCSASSSVTYMYWYQQKPGKAPKLLIYDTSNLASGVPSRFSGSGSGTDYTFTISSLQPEDIATYYCQQWSSHIFTFGQGTKVEIKRTVAEPQVYTLPPSRKEMTKNQVSLTCLVKGFYPSDIAVEWESNGQPENNYKTTPPVLKSDGSFFLYSKLTVDKSRWQQGNVFSCSVMHEALHNHYTQKSLSLSGEC EPKSSDKTHTCPPCPAPELLGGPSVFLFPPKPKDTLMISRTPEVTCVVVDVSHEDPEVKFNWYVDGVEVHNAKTKPREEQYNSTYRVVSVLTVLHQDWLNGKEYKCKVSNKALPAPIEKTISKAKGQPREPQVYTLPPPSEELALNELVTLTCLVKGFYPSDIAVEWLQGSQELPREKYLTWAPVLDSDGSFFLYSILRVAAEDWKKGDTFSCSVMHEALHNHYTQKSLDRSPGK

Continued, binder first:

Binder | binding result
one-armed anti-EGFR SEED antibody with Charge pair CH3 domain-exchanged Fab, Variant 1 (antibody, hu425 Fv; one Fab arm only; also called Charge pair variant 1) heavy: QVQLVQSGAEVKKPGASVKVSCKASGYTFTSHWMHWVRQAPGQGLEWIGEFNPSNGRTNYNEKFKSKATMTVDTSTNTAYMELSSLRSEDTAVYYCASRDYDYDGRYFDYWGQGTLVTVSSASTKGEPQVYTLPPSRKEMTKNQVSLTCLVKGFYPSDIAVEWESNGQPENNYKTTPPVLKSDGSFFLYSKLTVDKSRWQQGNVFSCSVMHEALHNHYTQKSLSLSKSCDKTHTCPPCPAPELLGGPSVFLFPPKPKDTLMISRTPEVTCVVVDVSHEDPEVKFNWYVDGVEVHNAKTKPREEQYNSTYRVVSVLTVLHQDWLNGKEYKCKVSNKALPAPIEKTISKAKGQPFRPEVHLLPPSREEMTKNQVSLTCLARGFYPKDIAVEWESNGQPENNYKTTPSRQEPSQGTTTFAVTSKLTVDKSRWQQGNVFSCSVMHEALHNHYTQKTISLSPGK light: DIQMTQSPSSLSASVGDRVTITCSASSSVTYMYWYQQKPGKAPKLLIYDTSNLASGVPSRFSGSGSGTDYTFTISSLQPEDIATYYCQQWSSHIFTFGQGTKVEIKRTVAEPQVYTLPPSREEMTKNQVSLTCLVKGFYPSDIAVEWESNGQPENNYDTTPPVLDSDGSFFLYSDLTVDKSRWQQGNVFSCSVMHEALHNHYTQKSLSLSGEC EPKSSDKTHTCPPCPAPELLGGPSVFLFPPKPKDTLMISRTPEVTCVVVDVSHEDPEVKFNWYVDGVEVHNAKTKPREEQYNSTYRVVSVLTVLHQDWLNGKEYKCKVSNKALPAPIEKTISKAKGQPREPQVYTLPPPSEELALNELVTLTCLVKGFYPSDIAVEWLQGSQELPREKYLTWAPVLDSDGSFFLYSILRVAAEDWKKGDTFSCSVMHEALHNHYTQKSLDRSPGK | binds
one-armed anti-EGFR SEED antibody with Azymetric CH3 domain-exchanged Fab, Variant 1 (antibody, hu425 Fv; one Fab arm only; also called hu425 CH3-Azymmetric variant 1) heavy: QVQLVQSGAEVKKPGASVKVSCKASGYTFTSHWMHWVRQAPGQGLEWIGEFNPSNGRTNYNEKFKSKATMTVDTSTNTAYMELSSLRSEDTAVYYCASRDYDYDGRYFDYWGQGTLVTVSSASTKGEPQVYVYPPSREEMTKNQVSLTCLVKGFYPSDIAVEWESNGQPENNYKTTPPVLDSDGSFALVSKLTVDKSRWQQGNVFSCSVMHEALHNHYTQKSLSLSKSCDKTHTCPPCPAPELLGGPSVFLFPPKPKDTLMISRTPEVTCVVVDVSHEDPEVKFNWYVDGVEVHNAKTKPREEQYNSTYRVVSVLTVLHQDWLNGKEYKCKVSNKALPAPIEKTISKAKGQPFRPEVHLLPPSREEMTKNQVSLTCLARGFYPKDIAVEWESNGQPENNYKTTPSRQEPSQGTTTFAVTSKLTVDKSRWQQGNVFSCSVMHEALHNHYTQKTISLSPGK light: DIQMTQSPSSLSASVGDRVTITCSASSSVTYMYWYQQKPGKAPKLLIYDTSNLASGVPSRFSGSGSGTDYTFTISSLQPEDIATYYCQQWSSHIFTFGQGTKVEIKRTVAEPQVYVLPPSREEMTKNQVSLLCLVKGFYPSDIAVEWESNGQPENNYLTWPPVLDSDGSFFLYSKLTVDKSRWQQGNVFSCSVMHEALHNHYTQKSLSLSGEC EPKSSDKTHTCPPCPAPELLGGPSVFLFPPKPKDTLMISRTPEVTCVVVDVSHEDPEVKFNWYVDGVEVHNAKTKPREEQYNSTYRVVSVLTVLHQDWLNGKEYKCKVSNKALPAPIEKTISKAKGQPREPQVYTLPPPSEELALNELVTLTCLVKGFYPSDIAVEWLQGSQELPREKYLTWAPVLDSDGSFFLYSILRVAAEDWKKGDTFSCSVMHEALHNHYTQKSLDRSPGK | binds
one-armed anti-EGFR SEED antibody with KiH2 CH3 domain-exchanged Fab, Variant 1 (antibody, hu425 Fv; one Fab arm only; also called KiH2 variant 1) heavy: QVQLVQSGAEVKKPGASVKVSCKASGYTFTSHWMHWVRQAPGQGLEWIGEFNPSNGRTNYNEKFKSKATMTVDTSTNTAYMELSSLRSEDTAVYYCASRDYDYDGRYFDYWGQGTLVTVSSASTKGEPQVYTLPPSRDELTKNQVSLWCLVKGFYPSDIAVEWESNGQPENNYKTTPPVLDSDGSFFLYSKLTVDKSRWQQGNVFSCSVMHEALHNHYTQKSLSLSKSCDKTHTCPPCPAPELLGGPSVFLFPPKPKDTLMISRTPEVTCVVVDVSHEDPEVKFNWYVDGVEVHNAKTKPREEQYNSTYRVVSVLTVLHQDWLNGKEYKCKVSNKALPAPIEKTISKAKGQPFRPEVHLLPPSREEMTKNQVSLTCLARGFYPKDIAVEWESNGQPENNYKTTPSRQEPSQGTTTFAVTSKLTVDKSRWQQGNVFSCSVMHEALHNHYTQKTISLSPGK light: DIQMTQSPSSLSASVGDRVTITCSASSSVTYMYWYQQKPGKAPKLLIYDTSNLASGVPSRFSGSGSGTDYTFTISSLQPEDIATYYCQQWSSHIFTFGQGTKVEIKRTVAEPQVYTLPPSRDELTKNQVSLSCAVKGFYPSDIAVEWESNGQPENNYKTTPPVLDSDGSFFLVSKLTVDKSRWQQGNVFSCSVMHEALHNHYTQKSLSLSGEC EPKSSDKTHTCPPCPAPELLGGPSVFLFPPKPKDTLMISRTPEVTCVVVDVSHEDPEVKFNWYVDGVEVHNAKTKPREEQYNSTYRVVSVLTVLHQDWLNGKEYKCKVSNKALPAPIEKTISKAKGQPREPQVYTLPPPSEELALNELVTLTCLVKGFYPSDIAVEWLQGSQELPREKYLTWAPVLDSDGSFFLYSILRVAAEDWKKGDTFSCSVMHEALHNHYTQKSLDRSPGK | binds
